Here are results for four substances from patent US20140286983A1.

The target of assay [1] is DENV-1 VLP mutant E311K (Dengue virus serotype 1 strain (56)BC94/95; C-terminal 20% Japanese encephalitis virus).
Assay [2] concerns the target DENV-1 VLP mutant G106R (Dengue virus serotype 1 strain (56)BC94/95; C-terminal 20% Japanese encephalitis virus).
The target of assay [3] is DENV-1 VLP mutant G106RL107D (Dengue virus serotype 1 strain (56)BC94/95; C-terminal 20% Japanese encephalitis virus).
Assay [4] addresses DENV-1 VLP mutant G106RL107DK310DE311KP364Q (pVD1-CRR VLP antigen) (Dengue virus serotype 1 strain (56)BC94/95; C-terminal 20% Japanese encephalitis virus).
For assay [5], the target named is DENV-1 VLP mutant K310D (Dengue virus serotype 1 strain (56)BC94/95; C-terminal 20% Japanese encephalitis virus).
Assay [6] deals with DENV-1 VLP mutant K310DE311KP364Q (Dengue virus serotype 1 strain (56)BC94/95; C-terminal 20% Japanese encephalitis virus).
Assay [7] deals with DENV-1 VLP mutant L107D (Dengue virus serotype 1 strain (56)BC94/95; C-terminal 20% Japanese encephalitis virus).
In assay [8] the target is DENV-1 VLP mutant P364Q (Dengue virus serotype 1 strain (56)BC94/95; C-terminal 20% Japanese encephalitis virus).
Assay [9] deals with DENV-1 virus (strain 56BC94/95) (Dengue virus serotype 1 strain 56BC94/95). As to the kind of experiment: cell-based or functional assay.
Assay [10] has as its target DENV-2 virus (strain 16681) (Dengue virus serotype 2 strain 16681) (UniProt P29990). As to the kind of experiment: cell-based or functional assay.
Assay [11] addresses DENV-3 virus (strain 116RC1396) (Dengue virus serotype 3 strain 116RC1396). As to the kind of experiment: cell-based or functional assay.
Assay [12] has as its target DENV-4 virus (strain 130) (Dengue virus serotype 4 strain 130). As to the kind of experiment: cell-based or functional assay.

Consider MAb 1A1D-2 (antibody), for which the percent of remaining reactivity compared to WT in assay [1] is 50%; in assay [2] it was 25%; in assay [3] it was 100%; in assay [4], less than 0.1%; in assay [5], 1.5%; in [6], less than 0.8%. In addition, the percent of remaining reactivity compared to WT in [7] and in assay [8] was 100% in each case. Moreover, the Nt50 (µg/mL), FRµNT is 1.68 µg/mL in assay [9], 0.46 µg/mL in [10], 1.26 µg/mL in assay [11] and greater than 20 µg/mL in [12].
For MAb 3H5 (antibody), the Nt50 (µg/mL), FRµNT in assay [9] was greater than 20 µg/mL; in assay [10] it was 0.15 µg/mL.
Consider MAb 4G2 (antibody), for which the percent of remaining reactivity compared to WT was 100% in assay [1]; less than 0.1% in assay [2]; less than 0.1% in assay [3]; less than 0.1% in assay [4]; less than 0.1% in assay [5]; 100% in assay [6]. Further, the percent of remaining reactivity compared to WT in [7] and in assay [8] was less than 0.1% in each case.
MAb 6B6C-1 (antibody): the percent of remaining reactivity compared to WT in assay [1] amounted to 100%; in [2] it was 12.5%; in assay [3] it was 0.8%; in assay [4] it was 3%; in [5], 100%; in assay [6], 50%. Moreover, the percent of remaining reactivity compared to WT was determined as 50% in [7] and 100% in assay [8].
